The text below walks through data of US20240327530A1 (ICHNOS SCIENCES, published 2024).

In general, Kd refers to the constant that tells how readily two partners part at equilibrium. A word on the koff: it is the first-order rate constant of dissociation. As a reminder, the kon is the second-order rate constant of association.

The target of assay [1] is T1, Recombinant cynomolgus monkey IL-1RAP-ECD(S21-E359)-avi-his protein (cynomolgus monkey, UniProt P59822 21-359 (rhesus entry)).
T1 construct: also called cyno IL-1RAP-ECD-Avi-His; recombinant cynomolgus monkey IL-1RAP-avi-his protein
T1 sequence: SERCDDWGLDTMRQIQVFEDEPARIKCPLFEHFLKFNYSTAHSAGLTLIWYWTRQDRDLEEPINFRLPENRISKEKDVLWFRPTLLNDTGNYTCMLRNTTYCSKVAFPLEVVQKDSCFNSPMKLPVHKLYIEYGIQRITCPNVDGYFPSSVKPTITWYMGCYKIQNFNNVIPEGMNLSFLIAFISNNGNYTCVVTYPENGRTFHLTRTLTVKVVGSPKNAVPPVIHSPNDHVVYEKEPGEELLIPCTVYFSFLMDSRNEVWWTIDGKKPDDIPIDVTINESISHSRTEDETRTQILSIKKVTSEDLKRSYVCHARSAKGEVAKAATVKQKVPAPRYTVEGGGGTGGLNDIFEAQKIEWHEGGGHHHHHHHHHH
The assay can be described thus: SPR, IgG1 LALA captured by anti-human Fc, cyno IL-1RAP-avi-his as analyte, 1:1 fit. How it is done: Surface plasmon resonance (SPR) was used to measure the binding affinities of the human IgG1 LALA molecules for human and cynomolgus monkey IL-1RAP. Affinities were measured on a BIACORE™ T200 instrument (BIACORE™, GE […]®) at 25° C. and analyzed with the BIACORE™ T200 Evaluation Software (v3.1). Measurements were performed on Series S CM5 sensor chips (BIACORE™ T200, BIACORE™, GE […]®, catalog no. BR100530) coupled with anti-human IgG Fc (BIACORE™, GE […]®, catalog no. BR100839) using a commercial amine coupling kit (BIACORE™, GE […]®, catalog no. BR100050). SPR measurements were performed with recombinant human IL-1RAP-avi-his protein produced in house (SEQ ID NO. 1) or recombinant cynomolgus monkey IL-1RAP-avi-his protein produced in house (SEQ ID NO. 2). The affinities to human and cynomolgus monkey IL-1RAP were assessed by immobilizing anti-IL-1RAP IgG1 LALA molecules and using IL-1RAP proteins as analyte. Around 150 RU of human IgG1 LALA were captured on fc2 of a Series S CM5 sensor chip coupled with anti-human IgG Fc. Recombinant human IL-1RAP-avi-his protein or recombinant cynomolgus monkey IL-1RAP-avi-his protein was injected in multi cycle kinetic at different concentrations ranging from 0.14 to 100 nM, in HBS-EP+ buffer (BIACORE™, GE […]®, catalog no. BR100669) at a flow rate of 30 μl/min for 3 min on fc1 and fc2 (fc1 being used as reference). Dissociation was monitored for 12 min. After each cycle, the surface was regenerated with 60 μl of regeneration solution provided with anti-human IgG Fc capture kit (BIACORE™, GE […]®, catalog no. BR100839). Experimental data were processed using the 1:1 Langmuir kinetic fitting model. Measurements included zero-concentration samples for referencing. Chi², U- and residual values were used to evaluate the quality of a fit between the experimental data and individual binding models.

Assay [2] concerns the target T1, Recombinant cynomolgus monkey …. The assay can be described thus: SPR. On the technique in general: In SPR one partner is held on a chip, and binding of the other changes the refractive index at the surface.
Assay [3] has as its target T2, Recombinant mouse IL-1RAP-his (Sino Biologicals, catalog no. 52657-M08H) (mouse, UniProt Q61730 21-350).
T2 construct: Bought; not shown: His tag of the bought protein
T2 sequence: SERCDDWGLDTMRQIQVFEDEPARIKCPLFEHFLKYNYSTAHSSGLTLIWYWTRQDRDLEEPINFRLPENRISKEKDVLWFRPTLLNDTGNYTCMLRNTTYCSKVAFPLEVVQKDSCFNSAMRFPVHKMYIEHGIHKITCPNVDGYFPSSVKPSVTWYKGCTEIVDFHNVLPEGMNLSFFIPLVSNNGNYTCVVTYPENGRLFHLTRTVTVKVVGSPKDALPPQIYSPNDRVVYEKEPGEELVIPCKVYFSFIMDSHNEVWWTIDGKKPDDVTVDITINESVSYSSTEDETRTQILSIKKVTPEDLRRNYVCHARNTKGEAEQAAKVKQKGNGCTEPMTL
The assay can be described thus: SPR, mouse IgG2a LALA captured on anti-mouse IgG Fc CM5 chip, mouse IL-1RAP-his as analyte in a concentration series, 1:1 fit, one representative replicate. As to the method:
Anti-IL-1RAP-C3-A3 mouse IgG2a LALA was immobilized on a Series S CM5 sensor CHIP coupled with anti-mouse IgG Fc. Mouse IL-1RAP-his was injected over immobilized IgG2a LALA in concentration series in HBS-EP+ buffer. One representative replicate is presented. Plots are showing data expressed as number of resonance units (abbreviated RU; Y axis) vs. time (s, X axis). Dotted lines represent the measured data while solid lines represent simulated fits. KD: equilibrium dissociation constant; Ka: association constant; Kd: dissociation constant.
Surface plasmon resonance (SPR) was used to measure the binding affinities of mouse IgG2a LALA molecules for mouse IL-1RAP. Affinity was measured on a BIACORE™ T200 instrument (BIACORE™ GE […]®) at 25° C. and analyzed with the BIACORE™ T200 Evaluation Software (v3.1). Measurements were performed on Series S CM5 sensor chips (BIACORE™ T200, BIACORE™, GE […]®, catalog no. BR100530) coupled with anti-mouse IgG Fc (BIACORE™, GE […]®, catalog no. BR100838) using a commercial amine coupling kit (BIACORE™, GE […]®, catalog no. BR100050). SPR measurements were performed with commercially available recombinant mouse IL-1RAP-his (Sino Biologicals, catalog no. 52657-M08H). The affinity to mouse IL-1RAP was assessed by immobilizing anti-mouse IL-1RAP mouse IgG2a LALA molecule and using mouse IL-1RAP protein as analyte. Around 150 RU of mouse IgG2a LALA was captured on fc2 of a Series S CM5 sensor chip coupled with anti-mouse IgG Fc. Mouse IL-1RAP-his was injected in multi cycle kinetic at different concentrations ranging from 0.14 to 100 nM, in HBS-EP+ buffer (BIACORE™, GE […]®, catalog no. BR100669) at a flow rate of 30 μl/min for 3 min on fc1 and fc2 (fc1 being used as reference). Dissociation was monitored for 15 min. After each cycle, the surface was regenerated with 60 μl of regeneration solution provided with anti-mouse IgG Fc capture kit (BIACORE™ GE […]®, catalog no. BR100838). Experimental data were processed using the 1:1 Langmuir kinetic fitting model. Measurements included zero-concentration samples for referencing. […]

B1: Anti-IL-1RAP-C8-RecC-ES-IgG1LALA (antibody, V domains shown)
VH: QVQLVQSGAEVKKPGSSVKVSCKASGSPAEPYAIQWVRQAPGQGLEWMGYIIPSLGGYDYAQKFQGRVTITADESTSTAYMELSSLRSEDTAVYYCARGQTLYESGRQFDIWGQGTLVTVSS
VL: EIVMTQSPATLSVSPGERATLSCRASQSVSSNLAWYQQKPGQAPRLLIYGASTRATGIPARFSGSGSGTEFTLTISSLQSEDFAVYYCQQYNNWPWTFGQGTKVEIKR
notes: also called ISB 880-C8-recC-ES
For the molecule B1, in assay [1], the dissociation constant (Kd) was 0.306 nM, the off-rate constant (koff) turned out to be 0.000212 s⁻¹ and the on-rate constant (kon) turned out to be 692000 M⁻¹ s⁻¹.

B2: Anti-IL-1RAP-C3-A3 mmIgG2a LALA (antibody, V domains shown)
VH: EVQLLESGGGLVQPGGSLRLSCAASGFIFSHYGMSWVRQAPGKGLEWVSAISYDGEGTLYADSVKGRFTISRDNSKNTLYLQMNSLRAEDTAVYYCARFRYYTAFDYWGQGTLVTVSS
VL: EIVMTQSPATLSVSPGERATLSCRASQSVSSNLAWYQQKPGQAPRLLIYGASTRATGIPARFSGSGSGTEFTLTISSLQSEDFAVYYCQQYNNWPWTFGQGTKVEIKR
notes: also called anti-IL-1RAP-C3-A3 mouse IgG2a LALA
As for B2, the binding result in assay [2] is given as “no binding”. For the same molecule, in assay [3], the Kd came to 0.557 nM, the koff is 7.6e-05 s⁻¹ and the on-rate constant (kon) was 137000 M⁻¹ s⁻¹.
